# Measured values published in the supplement of paper PMC10567573.
# B1: ZNF649 (parent)
# chain: YQAGKPDALTKLEQGEPLWTLEDE
# Variants of: B1
# Experiment: protein stability index of a GFP-peptide fusion (GPS, HEK-293T) (PSI 1-6); higher = more stable
# Conditions: c terminus: a fixed tail appended
# 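Also: lentivirally expressed fusions sorted by FACS into six bins by GFP to DsRed ratio, PSI derived from sequencing read proportions per bin multiplied by bin number.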
row,Variant,protein stability index
1,YQAGKPDAKTKLEQGEPLWTLEDE,4.86
2,YQAGKPDAMTKLEQGEPLWTLEDE,3.61
3,YQAGKPDANTKLEQGEPLWTLEDE,3.99
4,YQAGKPDAPTKLEQGEPLWTLEDE,4.38
5,YQAGKPDAQTKLEQGEPLWTLEDE,4.67
6,YQAGKPDARTKLEQGEPLWTLEDE,4.29
7,YQAGKPDASTKLEQGEPLWTLEDE,4.9
8,YQAGKPDATTKLEQGEPLWTLEDE,4.71
9,YQAGKPDAVTKLEQGEPLWTLEDE,4.62
10,YQAGKPDAWTKLEQGEPLWTLEDE,1.86
11,YQAGKPDAYTKLEQGEPLWTLEDE,4.54
12,YQAGKPDALAKLEQGEPLWTLEDE,4.88
13,YQAGKPDALCKLEQGEPLWTLEDE,4.28
14,YQAGKPDALDKLEQGEPLWTLEDE,4.91
15,YQAGKPDALEKLEQGEPLWTLEDE,4.5
16,YQAGKPDALGKLEQGEPLWTLEDE,3.69
17,YQAGKPDALIKLEQGEPLWTLEDE,4.02
18,YQAGKPDALKKLEQGEPLWTLEDE,3.15
19,YQAGKPDALLKLEQGEPLWTLEDE,4.39
20,YQAGKPDALMKLEQGEPLWTLEDE,4.22
21,YQAGKPDALNKLEQGEPLWTLEDE,4.41
22,YQAGKPDALPKLEQGEPLWTLEDE,4.97
23,YQAGKPDALQKLEQGEPLWTLEDE,4.55
24,YQAGKPDALRKLEQGEPLWTLEDE,3.97

row,Variant,protein stability index
1,YQAGKPDALSKLEQGEPLWTLEDE,4.62
2,YQAGKPDALVKLEQGEPLWTLEDE,4.62
3,YQAGKPDALWKLEQGEPLWTLEDE,2.31
4,YQAGKPDALYKLEQGEPLWTLEDE,4.58
5,YQAGKPDALTALEQGEPLWTLEDE,4.66
6,YQAGKPDALTCLEQGEPLWTLEDE,4.45
7,YQAGKPDALTDLEQGEPLWTLEDE,4.86
8,YQAGKPDALTELEQGEPLWTLEDE,4.06
9,YQAGKPDALTFLEQGEPLWTLEDE,3.37
10,YQAGKPDALTGLEQGEPLWTLEDE,4.21
11,YQAGKPDALTHLEQGEPLWTLEDE,4.78
12,YQAGKPDALTILEQGEPLWTLEDE,4.54
13,YQAGKPDALTLLEQGEPLWTLEDE,4.23
14,YQAGKPDALTMLEQGEPLWTLEDE,4.77
15,YQAGKPDALTNLEQGEPLWTLEDE,4.51
16,YQAGKPDALTPLEQGEPLWTLEDE,5.28
17,YQAGKPDALTQLEQGEPLWTLEDE,4.76
18,YQAGKPDALTRLEQGEPLWTLEDE,4.14
19,YQAGKPDALTSLEQGEPLWTLEDE,4.19
20,YQAGKPDALTTLEQGEPLWTLEDE,4.09
21,YQAGKPDALTVLEQGEPLWTLEDE,4.69
22,YQAGKPDALTWLEQGEPLWTLEDE,2.86
23,YQAGKPDALTYLEQGEPLWTLEDE,3.51
24,YQAGKPDALTKAEQGEPLWTLEDE,4.95

row,Variant,protein stability index
1,YQAGKPDALTKCEQGEPLWTLEDE,5.11
2,YQAGKPDALTKFEQGEPLWTLEDE,4.37
3,YQAGKPDALTKGEQGEPLWTLEDE,4.83
4,YQAGKPDALTKHEQGEPLWTLEDE,4.73
5,YQAGKPDALTKIEQGEPLWTLEDE,4.56
6,YQAGKPDALTKKEQGEPLWTLEDE,4.17
7,YQAGKPDALTKMEQGEPLWTLEDE,4.54
8,YQAGKPDALTKNEQGEPLWTLEDE,4.78
9,YQAGKPDALTKPEQGEPLWTLEDE,4.38
10,YQAGKPDALTKQEQGEPLWTLEDE,4.56
11,YQAGKPDALTKREQGEPLWTLEDE,4.4
12,YQAGKPDALTKSEQGEPLWTLEDE,4.52
13,YQAGKPDALTKTEQGEPLWTLEDE,4.22
14,YQAGKPDALTKVEQGEPLWTLEDE,4.32
15,YQAGKPDALTKWEQGEPLWTLEDE,3.75
16,YQAGKPDALTKYEQGEPLWTLEDE,4.68
17,YQAGKPDALTKLAQGEPLWTLEDE,4.2
18,YQAGKPDALTKLCQGEPLWTLEDE,3.2
19,YQAGKPDALTKLDQGEPLWTLEDE,4.18
20,YQAGKPDALTKLFQGEPLWTLEDE,2.6
21,YQAGKPDALTKLGQGEPLWTLEDE,3.31
22,YQAGKPDALTKLHQGEPLWTLEDE,4.25
23,YQAGKPDALTKLIQGEPLWTLEDE,3.15
24,YQAGKPDALTKLKQGEPLWTLEDE,3.34

row,Variant,protein stability index
1,YQAGKPDALTKLLQGEPLWTLEDE,3.14
2,YQAGKPDALTKLMQGEPLWTLEDE,3.45
3,YQAGKPDALTKLNQGEPLWTLEDE,4.16
4,YQAGKPDALTKLPQGEPLWTLEDE,4.18
5,YQAGKPDALTKLQQGEPLWTLEDE,2.87
6,YQAGKPDALTKLRQGEPLWTLEDE,3.26
7,YQAGKPDALTKLSQGEPLWTLEDE,4
8,YQAGKPDALTKLTQGEPLWTLEDE,3.86
9,YQAGKPDALTKLVQGEPLWTLEDE,4.21
10,YQAGKPDALTKLWQGEPLWTLEDE,1.98
11,YQAGKPDALTKLYQGEPLWTLEDE,3.12
12,YQAGKPDALTKLEAGEPLWTLEDE,4.11
13,YQAGKPDALTKLECGEPLWTLEDE,4.66
14,YQAGKPDALTKLEDGEPLWTLEDE,4.67
15,YQAGKPDALTKLEFGEPLWTLEDE,3.89
16,YQAGKPDALTKLEGGEPLWTLEDE,4.92
17,YQAGKPDALTKLEHGEPLWTLEDE,4.14
18,YQAGKPDALTKLEIGEPLWTLEDE,4.44
19,YQAGKPDALTKLEKGEPLWTLEDE,4.28
20,YQAGKPDALTKLELGEPLWTLEDE,4.07
21,YQAGKPDALTKLEMGEPLWTLEDE,4.17
22,YQAGKPDALTKLENGEPLWTLEDE,4.07
23,YQAGKPDALTKLEPGEPLWTLEDE,4.63
24,YQAGKPDALTKLERGEPLWTLEDE,3.8

row,Variant,protein stability index
1,YQAGKPDALTKLESGEPLWTLEDE,4.13
2,YQAGKPDALTKLETGEPLWTLEDE,4.71
3,YQAGKPDALTKLEVGEPLWTLEDE,4.71
4,YQAGKPDALTKLEWGEPLWTLEDE,4.44
5,YQAGKPDALTKLEYGEPLWTLEDE,3.53
6,YQAGKPDALTKLEQAEPLWTLEDE,3.84
7,YQAGKPDALTKLEQCEPLWTLEDE,3.9
8,YQAGKPDALTKLEQDEPLWTLEDE,4.6
9,YQAGKPDALTKLEQEEPLWTLEDE,4.88
10,YQAGKPDALTKLEQFEPLWTLEDE,3.74
11,YQAGKPDALTKLEQHEPLWTLEDE,4.31
12,YQAGKPDALTKLEQIEPLWTLEDE,4.15
13,YQAGKPDALTKLEQKEPLWTLEDE,4.4
14,YQAGKPDALTKLEQLEPLWTLEDE,4.25
15,YQAGKPDALTKLEQMEPLWTLEDE,3.97
16,YQAGKPDALTKLEQNEPLWTLEDE,4.11
17,YQAGKPDALTKLEQPEPLWTLEDE,3.89
18,YQAGKPDALTKLEQQEPLWTLEDE,4.31
19,YQAGKPDALTKLEQREPLWTLEDE,2.82
20,YQAGKPDALTKLEQSEPLWTLEDE,4.21
21,YQAGKPDALTKLEQTEPLWTLEDE,4.15
22,YQAGKPDALTKLEQVEPLWTLEDE,4.62
23,YQAGKPDALTKLEQWEPLWTLEDE,3.39
24,YQAGKPDALTKLEQYEPLWTLEDE,3.52

row,Variant,protein stability index
1,YQAGKPDALTKLEQGAPLWTLEDE,3.93
2,YQAGKPDALTKLEQGDPLWTLEDE,4.94
3,YQAGKPDALTKLEQGFPLWTLEDE,2
4,YQAGKPDALTKLEQGGPLWTLEDE,4.06
5,YQAGKPDALTKLEQGHPLWTLEDE,3.32
6,YQAGKPDALTKLEQGIPLWTLEDE,2.1
7,YQAGKPDALTKLEQGKPLWTLEDE,4.49
8,YQAGKPDALTKLEQGLPLWTLEDE,3.66
9,YQAGKPDALTKLEQGMPLWTLEDE,1.92
10,YQAGKPDALTKLEQGNPLWTLEDE,3.73
11,YQAGKPDALTKLEQGPPLWTLEDE,3.93
12,YQAGKPDALTKLEQGQPLWTLEDE,3.76
13,YQAGKPDALTKLEQGSPLWTLEDE,4.38
14,YQAGKPDALTKLEQGTPLWTLEDE,3.97
15,YQAGKPDALTKLEQGVPLWTLEDE,2.59
16,YQAGKPDALTKLEQGWPLWTLEDE,2.49
17,YQAGKPDALTKLEQGYPLWTLEDE,2.62
18,YQAGKPDALTKLEQGEALWTLEDE,4.86
19,YQAGKPDALTKLEQGECLWTLEDE,3.46
20,YQAGKPDALTKLEQGEELWTLEDE,4.21
21,YQAGKPDALTKLEQGEFLWTLEDE,3.68
22,YQAGKPDALTKLEQGEGLWTLEDE,3.47
23,YQAGKPDALTKLEQGEHLWTLEDE,4.1
24,YQAGKPDALTKLEQGEILWTLEDE,3.22

row,Variant,protein stability index
1,YQAGKPDALTKLEQGEKLWTLEDE,3.97
2,YQAGKPDALTKLEQGELLWTLEDE,3.95
3,YQAGKPDALTKLEQGEMLWTLEDE,4.1
4,YQAGKPDALTKLEQGENLWTLEDE,4.41
5,YQAGKPDALTKLEQGEQLWTLEDE,4.47
6,YQAGKPDALTKLEQGERLWTLEDE,3.94
7,YQAGKPDALTKLEQGEWLWTLEDE,3.36
8,YQAGKPDALTKLEQGEYLWTLEDE,3.23
9,YQAGKPDALTKLEQGEPAWTLEDE,4.5
10,YQAGKPDALTKLEQGEPCWTLEDE,4.91
11,YQAGKPDALTKLEQGEPDWTLEDE,5.11
12,YQAGKPDALTKLEQGEPEWTLEDE,5.49
13,YQAGKPDALTKLEQGEPFWTLEDE,3.54
14,YQAGKPDALTKLEQGEPGWTLEDE,4.83
15,YQAGKPDALTKLEQGEPHWTLEDE,5.06
16,YQAGKPDALTKLEQGEPIWTLEDE,3.53
17,YQAGKPDALTKLEQGEPKWTLEDE,5.03
18,YQAGKPDALTKLEQGEPMWTLEDE,3.84
19,YQAGKPDALTKLEQGEPPWTLEDE,5.35
20,YQAGKPDALTKLEQGEPQWTLEDE,5.19
21,YQAGKPDALTKLEQGEPRWTLEDE,4.96
22,YQAGKPDALTKLEQGEPSWTLEDE,5.32
23,YQAGKPDALTKLEQGEPTWTLEDE,5.06
24,YQAGKPDALTKLEQGEPWWTLEDE,3.59

row,Variant,protein stability index
1,YQAGKPDALTKLEQGEPYWTLEDE,3.95
2,YQAGKPDALTKLEQGEPLATLEDE,5.52
3,YQAGKPDALTKLEQGEPLCTLEDE,4.86
4,YQAGKPDALTKLEQGEPLDTLEDE,5.31
5,YQAGKPDALTKLEQGEPLETLEDE,5.34
6,YQAGKPDALTKLEQGEPLFTLEDE,4.86
7,YQAGKPDALTKLEQGEPLHTLEDE,5.72
8,YQAGKPDALTKLEQGEPLITLEDE,5.21
9,YQAGKPDALTKLEQGEPLKTLEDE,4.98
10,YQAGKPDALTKLEQGEPLLTLEDE,4.92
11,YQAGKPDALTKLEQGEPLMTLEDE,4.87
12,YQAGKPDALTKLEQGEPLNTLEDE,5.2
13,YQAGKPDALTKLEQGEPLPTLEDE,5.62
14,YQAGKPDALTKLEQGEPLRTLEDE,4.69
15,YQAGKPDALTKLEQGEPLSTLEDE,5.57
16,YQAGKPDALTKLEQGEPLTTLEDE,5.61
17,YQAGKPDALTKLEQGEPLVTLEDE,5.72
18,YQAGKPDALTKLEQGEPLYTLEDE,5.24
19,YQAGKPDALTKLEQGEPLWALEDE,3.73
20,YQAGKPDALTKLEQGEPLWCLEDE,2.62
